Experimental data: patent US20250320277A1

B1: DC2.M17 (antibody, V domains shown)
VH: EVQLVESGSELKKPGASVRVSCEASGYSFTSHTIVWMRQAPGQGLECLGWINTNTGNPTYAQGFTGRFVFSLDTSVSTAYLQISSLKAADTAVYYCARVLKCLGGSASCSGHGYYDYGMAVWGQGTTVTVSS
VL: DIVLTQSPLSLPVTPGEPASISCRSSQSLLHSNGYNFLHWYLQKPGQSPQLLIYLGSIRASGVPDRFSGSGSGTDFTLKISRVEAEDVGVYYCMQALQTFMYTFGQGTKLEIK
B2: DC2.M342 (antibody, V domains shown)
VH: QVQLVQSGAEVKKSGSSVTVSCKASGSTFISHAISWVRQAPGEGLEWMGRLIPVSGTPKYAHKFQGRLTITADDSTTTVYLTLRSLRFEDTAVYYCATWDADSTTLLYYFMDVWGKGTTVTVSS
VL: DIQVTQSPSTLSASVGDRVTITCRASQSISRWLAWYQQKPGKAPKLLIYKASSLESGVPSRFSGTGSGTEFTLTISSLQPDDFATYYCQQYNSYSTWTFGQGTKLEIK
B3: DC2.M287 (antibody, V domains shown)
VH: EVQLVESGGGLVQPGGSLRLSCAASGFTFRDYWMIWVRQTPGKGLEWVANINRNGNEKHYVDSLKGRFTISRDNTKNSLYLQVNGLSAEDTAVYYCVRDSSPSFGPGNYYDAFDIWGQGTTVTVSS
VL: DIRVTQSPSSLSASVGDRVTITCRASQDIRNEVGWYQQKPGQAPKVLIFAASTLQSGVPSRFRGSGSGTVFTLTISSLQPEDLATYYCLQDFNYPRTFGQGTKVDIK
B4: DC2.M301 (antibody, V domains shown)
VH: QVQLVQSGAEVKKPGAAVKVSCKASGYTFSGYYIHWVRQAPGQGLEWMGWINPNSGGTDFAQKFQGRVTMTRDTSISTAYMELSRLRSDDTAVYLCSRDPGYTYGYPLGYWGQGTLVTVSS
VL: ETTLTQSPGTLSLSPGERATLSCRASQSVSSSYLAWYQQKPGQAPRLLIYGTSSRATGIPDRFSGRGSGTDFTLTISRLEPEDFAVYYCQQYGNSPPYTFGQGTKVDIK
B5: DC2.M336 (antibody, V domains shown)
VH: QVQLVQSGGRLVKPGGSLRLSCAASGFTIIDSYMSWIRQAPGKGLEWISYINPSGSVIYYSDSVKGRFISSRDNAKNSVYLQLSSLRAEDAAVYYCARGIYDQSDAFDLWGQGTTVTVSS
VL: DIVLTQSPSSLSASVGDRVTITCRASQGISNSLAWYQQRPGKAPKLLIYGASRLGSGVPSRFSGSGSGADYTLTISGLQPEDFATYYCQQYYITPPMTFGPGTKVDIK
B6: DC2.M5 (antibody, V domains shown)
VH: EVQLVESGGGLVQPGGSLSLACEVSGFILSDHYIDWVRQAPGKGLEWVGRSRNKAKRYTTEYAASVKGRFTISRDDSNNSLYLLMKSLKTEDTAVYFCTRAGYYDKNGDSLDALDIWGQGTMVTVSS
VL: DIQVTQSPSSLSASVGDRVTITCRTSQTVSSNLNWYQQRPGKAPKLLISGISDLHSGVPSRFSGSGSGTDSTLTISSLQPEDSATYYCQQSYSLPRTFGQGTKVEIK

What was measured:
[1] = target: CHIKV p62-E1 (Chikungunya virus); assay: ELISA, plate-coated p62-E1, eight-point mAb dilution
[2] = target: MAYV p62-E1 (Mayaro virus (BeAr 20290)); assay: as above
[3] = target: CHIKV p62-E1 (Chikungunya virus)
[4] = target: CHIKV p62-E1 (Chikungunya virus); assay: BLI, […], global 1:1 fit; […]
[5] = target: CHIKV p62-E1 (Chikungunya virus); assay: BLI, mAb on anti-human Fc sensor

Row | Binder | EC50 [1] | EC50 [2] | kon [3] | Kd [4] | fold higher binding affinity for CHIKV p62-E1 than MAYV p62-E1 [5]
1 | B1 | 0.9 nM | – | – | – | –
2 | B2 | 35 nM | 130 nM | – | – | –
3 | B3 | 43 nM | – | – | – | –
4 | B4 | 0.88 nM | – | 260000 M⁻¹ s⁻¹ | 1.6 nM | 10 fold
5 | B5 | 0.9 nM | 12.5 nM | – | – | –
6 | B6 | 33 nM | 39 nM | – | – | –
